Results from article PMC11464748, “A novel assay of excess plasma kallikrein-kinin system activation in hereditary angioedema” (Frontiers in Allergy, 2024).
Values joined by “and” are separate entries in the source; they are usually repeats but may differ in a detail not shown here. Equal values may be shown once. One block for each binder: values may come before it.

Columns and labels:
Conditions in all cases: both partners purified
[1] = target: T1, cleaved high-molecular-weight kininogen (HKa), purified (Homo sapiens, UniProt P01042, biotin (biotinylated HKa in the Fab screening ELISA) | biotin (biotinylated HKa in the Fab screening ELISA)); experiment: SPR; in the absence of zinc chloride
T1 construct: heavy chain of HKa, the two-chain disulfide-linked product of high-molecular-weight kininogen after release of bradykinin, human; light chain of HKa, human; the purified HKa standard mainly consists of the 46-kDa light chain; also called cleaved HK; purified HKa standard protein; source: bought: Enzyme Research Laboratories

[2] = target: T1, cleaved high-molecular-weight kininogen …; experiment: SPR; in the presence of zinc chloride
[3] = target: T2, cleaved high-molecular-weight kininogen (HKa) (Homo sapiens, UniProt P01042); experiment: SPR; HKa immobilised by amine coupling on a CM5 chip (~400 RU), M4-B4 injected 2 min at 50 uL/min, 15 min dissociation; Biacore 3000, 25°C, HBS-P (10 mM HEPES pH 7.4, 150 mM NaCl, 0.005% P20) with 200 uM ZnCl2; regeneration 10 mM glycine pH 1.5; 1:1 model
T2 construct: the two chains are linked by a disulfide; light chain of HKa (56-kDa or 46-kDa form); the purified HKa standard protein mainly consists of the 46-kDa light chain; also called cleaved HK; source: bought: Enzyme Research Laboratories

[4] = target: T2, cleaved high-molecular-weight kininogen …; experiment: SPR; HKa immobilised by amine coupling on a CM5 chip (~400 RU), M4-B4 injected 2 min at 50 uL/min, 15 min dissociation; Biacore 3000, 25°C, HBS-P (10 mM HEPES pH 7.4, 150 mM NaCl, 0.005% P20); no added ZnCl2; 1:1 model

T2 sequence (P01042 whole entry, looked up): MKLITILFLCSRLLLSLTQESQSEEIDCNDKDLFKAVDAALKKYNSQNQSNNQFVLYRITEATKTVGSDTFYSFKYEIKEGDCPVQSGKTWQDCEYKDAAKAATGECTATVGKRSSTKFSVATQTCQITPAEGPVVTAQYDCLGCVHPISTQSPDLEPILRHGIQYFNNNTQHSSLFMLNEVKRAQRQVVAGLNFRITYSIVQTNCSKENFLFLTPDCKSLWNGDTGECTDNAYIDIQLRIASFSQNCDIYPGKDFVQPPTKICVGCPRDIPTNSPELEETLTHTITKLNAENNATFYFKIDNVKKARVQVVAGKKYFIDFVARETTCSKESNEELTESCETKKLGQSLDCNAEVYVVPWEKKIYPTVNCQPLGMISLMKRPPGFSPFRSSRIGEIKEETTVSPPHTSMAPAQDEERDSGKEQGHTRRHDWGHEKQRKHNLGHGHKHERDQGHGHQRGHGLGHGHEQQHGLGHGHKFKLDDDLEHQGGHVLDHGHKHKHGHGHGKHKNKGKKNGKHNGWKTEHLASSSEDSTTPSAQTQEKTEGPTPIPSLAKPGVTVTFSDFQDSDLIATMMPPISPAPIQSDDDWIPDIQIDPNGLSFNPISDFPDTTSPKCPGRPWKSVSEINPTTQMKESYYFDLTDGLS

Kd [1]: 6.08 ± 0.26 nM
Kd [2]: 1.06 ± 0.25 nM
B1: M4-B4 antibody (Fab or IgG, format not told for the experiment) (antibody, V domains shown)
VH: EVQLLESGGGLVQPGGSLRLSCAASGFTFSFYVMVWVRQAPGKGLEWVSGISPSGGNTAYADSVKGRFTISRDNSKNTLYLQMNSLRAEDTAVYYCARKLFYYDDTKGYFDFWGQGTLVTVSS
VL: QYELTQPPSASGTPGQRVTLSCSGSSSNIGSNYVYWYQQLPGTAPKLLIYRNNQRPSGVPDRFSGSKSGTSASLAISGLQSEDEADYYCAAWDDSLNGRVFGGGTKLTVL
notes: variable part as the heavy chain of m1; as the light chain of m1; The optimised ELISA coated 'the M4-B4 Fab or IgG'; also called HKa-specific antibody

Kd [3]: 1.09 nM and 1.24 nM and 0.881 nM
koff [3]: 0.00125 s⁻¹ and 0.00172 s⁻¹ and 0.00156 s⁻¹ and 0.00164 s⁻¹
kon [3]: 1.38e+06 M⁻¹ s⁻¹ and 1.77e+06 M⁻¹ s⁻¹ and 1.58e+06 M⁻¹ s⁻¹ and 1.15e+06 M⁻¹ s⁻¹
Kd [4]: 5.9 nM and 6.26 nM
koff [4]: 0.0067 s⁻¹ and 0.00616 s⁻¹ and 0.00643 s⁻¹
kon [4]: 1.1e+06 M⁻¹ s⁻¹ (2×) and 984000 M⁻¹ s⁻¹
B2: M4-B4 (antibody, V domains shown)
VH: B1 VH
VL: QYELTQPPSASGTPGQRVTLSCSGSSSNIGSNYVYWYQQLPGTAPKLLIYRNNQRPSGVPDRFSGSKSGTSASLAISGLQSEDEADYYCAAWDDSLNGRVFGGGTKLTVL
notes: The legend of the SPR says only 'M4-B4 injected'; also called M004-B04; 559B-M0004-B04; source: Fab: E. coli, purified (protein A Sepharose); IgG1: 293T cells, transiently expressed, purified (protein A Sepharose)
